Substrate in series [1]: C[C@H](O)C(=O)O
The experiment in a line: purified protein. Format: biochemical, Neomoorella thermoacetica. As to conditions: 2 mM NAD+, 50 mM Tris/HCl pH 8, 10 mM NaCl, 4 mM DTE, 65 °C, anoxic.

Substrate in series [2]: NC(=O)c1ccc[n+]([C@@H]2O[C@H](COP(=O)(O)OP(=O)(O)OC[C@H]3O[C@@H](n4cnc5c(N)ncnc54)[C@H](O)[C@@H]3O)[C@@H](O)[C@H]2O)c1
The experiment in a line: purified protein. The format is biochemical, Neomoorella thermoacetica. To be noted: 20 mM L-lactate, 50 mM Tris/HCl pH 8, 10 mM NaCl, 4 mM DTE, 65 °C, anoxic, varied: cofactor.

Substrate in series [3]: NC(=O)C1=CN([C@@H]2O[C@H](COP(=O)(O)OP(=O)(O)OC[C@H]3O[C@@H](n4cnc5c(N)ncnc54)[C@H](O)[C@@H]3O)[C@@H](O)[C@H]2O)C=CC1
The experiment in a line: purified protein. To be noted: 1 mM pyruvate, 50 mM Tris/HCl pH 8, 10 mM NaCl, 4 mM DTE, 65 °C, anoxic, varied: cofactor. Format: biochemical, Neomoorella thermoacetica.

Substrate in series [4]: CC(=O)C(=O)O
Kind of series: purified protein. To be noted: 0.5 mM NADH, 50 mM Tris/HCl pH 8, 10 mM NaCl, 4 mM DTE, 65 °C, anoxic. The format is biochemical, Neomoorella thermoacetica.

Series [5] concerns the molecule itself. The experiment in a line: SEC; calibrated Superose 6 column, buffer 4 (50 mM Tris/HCl pH 7.5, 150 mM NaCl, 20 mM MgSO4, 20% glycerol, 4 mM DTE, 4 uM resazurin), size standards aprotinin, carbonic anhydrase, ovalbumin, conalbumin; native size 60 kDa against a 34 kDa monomer. On the technique in general: In gel filtration, larger molecules generally elute earlier.

The results in this text go back to paper PMC12051018, “Purification and characterization of a thermophilic NAD ^+‐dependent lactate dehydrogenase from Moorella thermoacetica” (FEBS Open Bio, 2025).

The Km is the substrate concentration at which the rate is half of its maximum. The stoichiometry N is the number of molecules, sites or subunits per partner or assembly.

B1: LDH from M. thermoacetica (Moorella thermoacetica ATCC 39073) (protein)
chain: MGLQGPAKVAIIGTGYVGSSTAFALLFSPLVKEMVLVDVNHAKAEGEAMDLAHAATLIRPVEVYAGRPADCAGSRIVIFTAGANQQPGQTRLDLIHRNTAIVRQALPEILHYCPEALVLMVANPVDILTYVAWKISGLPENRVLGSGTVLDSARFRHLLSRHYRVDPRNIHAYVIGEHGDTEVPVWSLANVAGVDLEEFYLMDGMREEEAFRVEISHQVREAAYEIIERKGVTSYGVALALSRIIECILRNEHSVLTISSVIRDLYGIDGEVALSLPCLVGNEGREKVLAIPLVAREKAALKHSATTLQQLIAQLSL
notes: native full-length, purified from lactate-grown cells; native 60 kDa, dimer
For B1, the Km in “purified protein [1]” was found to be 20000 µM; in the series “purified protein [2]”, 500 µM; in the series “purified protein [3]”, 100 µM; in “purified protein [4]” it was 1000 µM.

B2: NAD+-dependent lactate dehydrogenase from Moorella thermoacetica (enzyme, Moorella thermoacetica (DSM 521), UniProt Q2RHG3 1-317, looked up)
chain: MGLQGPAKVAIIGTGYVGSSTAFALLFSPLVKEMVLVDVNHAKAEGEAMDLAHAATLIRPVEVYAGRPADCAGSRIVIFTAGANQQPGQTRLDLIHRNTAIVRQALPEILHYCPEALVLMVANPVDILTYVAWKISGLPENRVLGSGTVLDSARFRHLLSRHYRVDPRNIHAYVIGEHGDTEVPVWSLANVAGVDLEEFYLMDGMREEEAFRVEISHQVREAAYEIIERKGVTSYGVALALSRIIECILRNEHSVLTISSVIRDLYGIDGEVALSLPCLVGNEGREKVLAIPLVAREKAALKHSATTLQQLIAQLSL
notes: L-lactate dehydrogenase of Moorella thermoacetica DSM 521, product of the ldh gene (954 bp, predicted mass 34.6 kDa), identified by peptide mass fingerprinting; Native enzyme purified from the organism; on SDS-PAGE about 34 kDa, which fits the predicted monomer; also called LDH; gene product of the ldh gene
Consider B2, for which the “stoichiometry N” value in series [5] came to 2.
